Experimental data reported in paper PMC10917784.

Target: Trastuzumab
Assay: SPR; antibody constructs immobilised on a Protein L Series S CM5 chip, increasing concentrations of Fc receptor flushed; Biacore 8K+, 25 °C, neutral pH; steady state affinity model
Conditions: remark: other sources report otherwise

Kd: 543 nM
B1: human FcγRIIa ECD, P12318 34-217 (receptor)
chain: QAAAPPKAVLKLEPPWINVLQEDSVTLTCQGARSPESDSIQWFHNGNLIPTHTQPSYRFKANNNDSGEYTCQTGQTSLSDPVHLTVLSEWLVLQTPHLEFQEGETIMLRCHSWKDKPLVKVTFFQNGKSQKFSHLDPTFSIPQANHSHSGDYHCTGNIGYTLFSSKPVTITVQVPSMGSSSPMG
